Laboratory results from patent US11059903B2, “Anti-PSMA antibodies, uses thereof and conjugates thereof” (Polytherics Limited, priority 2016, dated 2021).
Square brackets hold non-standard residues; d marks the D form. Peptide text beside a SMILES is read from it. * marks the point of attachment. Dolaproine = CO[C@@H]([C@@H]1CCCN1)[C@@H](C)C(=O)O; Dil = CC[C@H](C)[C@H](NC)[C@@H](CC(=O)O)OC; X1 = C[C@@H](N*)[C@@H](O)c1ccccc1; NMeV = CN[C@H](C(=O)O)C(C)C

Key:
[1] = tested on: LNCaP cells; experiment: In vitro cell viability assay (CellTiter Glo) on LNCaP cells; type: cell-based; settings: anti-proliferative effect, 96 h
Procedure: (§1) The in vitro efficacies of ADCs 1 to 7, prepared as described within Example 4, were determined by measuring their inhibitory effect upon cell growth of PSMA over-expressing cancer cell lines.
(§2) Loss of tumour cell viability following treatment with cytotoxic drugs or ADCs in vitro can be measured by growing cell lines in the presence of increasing concentrations of drugs or ADCs and quantifying the loss of proliferation or metabolic activity using CellTiter Glo® Luminescence reagent (Promega Corp.). The protocol describes cell seeding, drug treatment and determination of the cell viability in reference to untreated cells based on ATP synthesis, which is directly related to the number of cells present in the well. […]
(§3) The cell viability assay was carried out using the Cell-Titer Glo® Luminescence reagent, as described by the manufacturer's instructions, (Promega Corp. Technical Bulletin TB288; Lewis Phillips G. D, Cancer Res 2008; 68:9280-9290). Luminescence was recorded using a plate reader (e.g. Molecular Devices Spectramax M3 plate reader), and data subsequently analysed using a four parameter non-linear regression model. […]
(§4) PSMA-positive LNCaP (clone FGC) and C4-2 cells were detached with TrypLE and resuspended in complete medium. Cells were counted using disposable Neubauer counting chambers and cell density adjusted to 10×10^4 cells/mL for LNCaP and 2×10^4 cells/mL for C4-2. […]

[2] = tested on: C4-2 cells; experiment: In vitro cell viability assay (CellTiter Glo) on C4-2 cells; type: cell-based; settings: anti-proliferative effect, 96 h
Procedure: as §1, §2, §3, §4

[3] = Heat stress test, aggregation analysed by SEC; type: physicochemical
Procedure: Antibody samples (0.5 mg/mL in PBS) were incubated at 75° C. for 30 min followed by incubation in an ice-bath for 5 min prior to being analysed for their extent of aggregation. Analysis of antibody solutions was carried out by Size Exclusion Chromatography (SEC) and by turbidity measurements.
SEC was performed using a TOSOH Bioscience TSK gel Super SW 3000 column. UV absorbance at 280 nm was monitored during an isocratic elution with a 0.2 M Potassium phosphate buffer, pH 6.8 (0.2 M potassium chloride and 15% isopropanol). The elution times and number of peaks indicate whether the sample contains aggregated, degraded or native antibody. The % area under the curve (Abs280) was used to determine the quantity of each species present in the SEC analysis.

[4] = post stress test: 0.5 mg/mL in PBS, 75° C. for 30 min, SEC % area

Row | Compound | IC50 [1] [nM] | IC50 [2] [nM] | Stability compared with AB-02 to AB-06 antibodies ([3]; heat stress test, in words) | Ab in aggregated form (%) [3, 4] [%] | Ab in native conformation (%) [3, 4] [%]
1 | CC[C@H](C)[C@@H]([C@@H](CC(=O)N1CCC[C@H]1[C@H](OC)[C@@H](C)C(=O)N[C@H](C)[C@@H](O)c1ccccc1)OC)N(C)C(=O)[C@@H](NC(=O)[C@@H](NC)C(C)C)C(C)C [MMAE] (H-[NMeV]V[Dil][Dolaproine]-X1) | 2.23 | 0.63 | – | – | –
2 | AB-10: Prior art de-immunised J591 anti-PSMA antibody, heavy chain SEQ ID No 3, light chain SEQ ID No 4 [reference compound] | – | – | less stable | 99.6 | 0.4
